What was measured:
BACE1 [1] = molecular target: T1, BACE1 (Homo sapiens, UniProt P56817); test: Co-immunoprecipitation of nectin-1 truncation mutants with BACE1 co-expressed in HEK 293 cells; format: binding; conditions: 48 hr. after transfection
T1 construct: expressed in transfected cells; host or cells: HEK 293
Method: To define the minimal region within the ectodomain of nectin-1 required for BACE1 interaction, immunoprecipitations between the nectin-1 truncation mutants and BACE1 were performed. BACE1 and full length or truncated nectin-1 were co-expressed in HEK 293 cells and harvested 48 hr. after transfection. To confirm to the efficiencies of the co-transfections, equal volumes of cell lysate were loaded on SDS-PAGE gels and analyzed by Western blot. Transfection efficiency was similar for nectin-1 and its derivates (FIG. 10A) and BACE1 (FIG. 10B). Immunoprecipitation was performed with a nectin-1 cytoplasmic specific antibody and precipitates were analyzed on two separate 10% SDS-PAGE. Western blots were probed with anti-nectin-1 (FIG. 10C) or anti-BACE1 (FIG. 10D) antibodies. The nectin-1 antibody directly immunoprecipitated the respective nectin-1 polypeptides and processed CTFs (FIG. 10C). Furthermore, BACE1, both monomer and dimer, was immunoprecipitated by the nectin-1 antibody, confirming the association of BACE1 with nectin-1.

BACE1 [2] = molecular target: T1, BACE1; test: Co-immunoprecipitation of nectin-1 point mutants with BACE1 co-expressed in HEK 293 cells; format: binding; conditions: 48 hr. after transfection
Method: To express how these point mutations affect the association of nectin-1 with BACE1, physical association of the mutants was examined by immunoprecipitation. We co-expressed BACE1 and nectin-1 or one of the cleavage refractory point mutants in HEK 293 cells. Cells were harvested and lysed in lysis buffer 48 hr. after transfection. To confirm the co-transfection efficiency of nectin-1 or it derivatives and BACE1, equal volumes of cell lysates were analyzed by 10% SDS-PAGE followed by Western blotting. Transfection efficiencies for nectin-1 and derivatives and BACE1 were similar in each sample (FIG. 12A—nectin-1, FIG. 12B—BACE1). Co-expression of nectin-1 with BACE1 increased the amount of CTF bands compared to nectin-1 alone (FIG. 12A, lanes 3 and 4).
Immunoprecipitation was performed using a C-terminal specific nectin-1 antibody. […] The intensities of nectin-1 CTF bands were much stronger when nectin-1 was co-expressed with BACE1. BACE1 was also detected in nectin-1 complexes (FIG. 12D).

[3] = test system: processing of wild type nectin-1; test: Co-transfection of nectin-1 mutants with wild-type nectin-1 in HEK 293 cells, Western blot of CTF bands; format: cell-based; conditions: 0.5 μg wild-type nectin-1 plasmid, 24 hr. post-transfection
Method: Mutants T310A and Y311A were tested to see if they would interfere with the processing of wild type nectin-1. HEK 293 cells were co-transfected with 0.5 μg of a plasmid containing wild-type nectin-1 and with a plasmid containing no insert (control), green fluorescent protein (GFP), nectin-1 T310A or nectin-1 Y311A. Co transfection efficiency was approximately 85%. Cells were harvested 24 hr. post-transfection and samples were analyzed on a 12% SDS-PAGE gel. […] Co-transfection with vector alone or GFP had no effect on nectin-1 processing. […] The residual CTF bands detected in the T310A and Y311A samples are likely due to the 15% of the cell population that received only the wild type nectin-1 construct.

T1 sequence (P56817 46-501, species assumed): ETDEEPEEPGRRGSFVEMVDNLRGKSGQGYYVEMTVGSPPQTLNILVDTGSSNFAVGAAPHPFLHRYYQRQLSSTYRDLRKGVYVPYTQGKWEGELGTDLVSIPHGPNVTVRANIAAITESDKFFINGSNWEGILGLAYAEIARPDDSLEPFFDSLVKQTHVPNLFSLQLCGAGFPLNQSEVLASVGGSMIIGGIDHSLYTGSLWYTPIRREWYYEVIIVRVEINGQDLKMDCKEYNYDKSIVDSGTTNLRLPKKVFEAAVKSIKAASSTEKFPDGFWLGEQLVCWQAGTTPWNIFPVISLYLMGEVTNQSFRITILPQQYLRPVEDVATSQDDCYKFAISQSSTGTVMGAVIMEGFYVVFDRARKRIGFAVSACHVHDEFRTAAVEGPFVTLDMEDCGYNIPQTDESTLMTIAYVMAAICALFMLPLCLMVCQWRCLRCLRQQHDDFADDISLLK

Molecule	association with BACE1 (co-immunoprecipitation with nectin-1 antibody) (BACE1 [1])	intensity of BACE1 bands co-precipitated, compared with wild type nectin-1 (BACE1 [2])	production of CTF bands of co-transfected wild type nectin-1 [3]
Δ28-324: nectin-1 ectodomain truncation mutant, V5 and flag tagged (protein, left off: small tags and cut ends, nectin-1 ectodomain truncation mutant, V5 and flag tagged) QVEVNITEFPYTPSPPEHGRRAGPVPTAIIGGVAGSILLVLIVVGGIVVALRRRRHTFKGDYSTKKHVYGNGYSKAGIPQHHPPMAQNLQYPDDSDDEKKAGPLGGSSYEEEEEEEEGGGGGERKVGGPHPKYDEDAKRPYFTVDEAEARQDGYGDRTLGYQYDPEQLDLAENMVSQNDGSFISKKEWYV	Association with BACE1 was also detected		
Δ28-312: nectin-1 ectodomain truncation mutant, V5 and flag tagged (protein, left off: small tags and cut ends, nectin-1 ectodomain truncation mutant, V5 and flag tagged) CEATNPIGTRSGQVEVNITEFPYTPSPPEHGRRAGPVPTAIIGGVAGSILLVLIVVGGIVVALRRRRHTFKGDYSTKKHVYGNGYSKAGIPQHHPPMAQNLQYPDDSDDEKKAGPLGGSSYEEEEEEEEGGGGGERKVGGPHPKYDEDAKRPYFTVDEAEARQDGYGDRTLGYQYDPEQLDLAENMVSQNDGSFISKKEWYV	Association with BACE1 was also detected		
Δ28-333: nectin-1 ectodomain truncation mutant, V5 and flag tagged (protein, left off: small tags and cut ends, nectin-1 ectodomain truncation mutant, V5 and flag tagged) PYTPSPPEHGRRAGPVPTAIIGGVAGSILLVLIVVGGIVVALRRRRHTFKGDYSTKKHVYGNGYSKAGIPQHHPPMAQNLQYPDDSDDEKKAGPLGGSSYEEEEEEEEGGGGGERKVGGPHPKYDEDAKRPYFTVDEAEARQDGYGDRTLGYQYDPEQLDLAENMVSQNDGSFISKKEWYV	Association with BACE1 was also detected		
T310A: T310A point mutant of nectin-1 (protein, listed as Homo sapiens) MARMGLAGAAGRWWGLALGLTAFFLPGVHSQVVQVNDSMYGFIGTDVVLHCSFANPLPSVKITQVTWQKSTNGSKQNVAIYNPSMGVSVLAPYRERVEFLRPSFTDGTIRLSRLELEDEGVYICEFATFPTGNRESQLNLTVMAKPTNWIEGTQAVLRAKKGQDDKVLVATCTSANGKPPSVVSWETRLKGEAEYQEIRNPNGTVTVISRYRLVPSREAHQQSLACIVNYHMDRFKESLTLNVQYEPEVTIEGFDGNWYLQRMDVKLTCKADANPPATEYHWTTLNGSLPKGVEAQNRTLFFKGPINYSLAGAYICEATNPIGTRSGQVEVNITEFPYTPSPPEHGRRAGPVPTAIIGGVAGSILLVLIVVGGIVVALRRRRHTFKGDYSTKKHVYGNGYSKAGIPQHHPPMAQNLQYPDDSDDEKKAGPLGGSSYEEEEEEEEGGGGGERKVGGPHPKYDEDAKRPYFTVDEAEARQDGYGDRTLGYQYDPEQLDLAENMVSQNDGSFISKKEWYV		much greater than that precipitated by wild type nectin-1	substantially reduced
Y311A: Y311A point mutant of nectin-1 (protein, listed as Homo sapiens) MARMGLAGAAGRWWGLALGLTAFFLPGVHSQVVQVNDSMYGFIGTDVVLHCSFANPLPSVKITQVTWQKSTNGSKQNVAIYNPSMGVSVLAPYRERVEFLRPSFTDGTIRLSRLELEDEGVYICEFATFPTGNRESQLNLTVMAKPTNWIEGTQAVLRAKKGQDDKVLVATCTSANGKPPSVVSWETRLKGEAEYQEIRNPNGTVTVISRYRLVPSREAHQQSLACIVNYHMDRFKESLTLNVQYEPEVTIEGFDGNWYLQRMDVKLTCKADANPPATEYHWTTLNGSLPKGVEAQNRTLFFKGPINYSLAGTAICEATNPIGTRSGQVEVNITEFPYTPSPPEHGRRAGPVPTAIIGGVAGSILLVLIVVGGIVVALRRRRHTFKGDYSTKKHVYGNGYSKAGIPQHHPPMAQNLQYPDDSDDEKKAGPLGGSSYEEEEEEEEGGGGGERKVGGPHPKYDEDAKRPYFTVDEAEARQDGYGDRTLGYQYDPEQLDLAENMVSQNDGSFISKKEWYV		much greater than that precipitated by wild type nectin-1	substantially reduced
Δ28-250: nectin-1 ectodomain truncation mutant, V5 and flag tagged (protein, left off: small tags and cut ends, nectin-1 ectodomain truncation mutant, V5 and flag tagged) FDGNWYLQRMDVKLTCKADANPPATEYHWTTLNGSLPKGVEAQNRTLFFKGPINYSLAGTYICEATNPIGTRSGQVEVNITEFPYTPSPPEHGRRAGPVPTAIIGGVAGSILLVLIVVGGIVVALRRRRHTFKGDYSTKKHVYGNGYSKAGIPQHHPPMAQNLQYPDDSDDEKKAGPLGGSSYEEEEEEEEGGGGGERKVGGPHPKYDEDAKRPYFTVDEAEARQDGYGDRTLGYQYDPEQLDLAENMVSQNDGSFISKKEWYV	interacted with BACE1 very strongly		
Δ28-349: nectin-1 ectodomain truncation mutant, V5 and flag tagged (protein, left off: small tags and cut ends, nectin-1 ectodomain truncation mutant, V5 and flag tagged) PTAIIGGVAGSILLVLIVVGGIVVALRRRRHTFKGDYSTKKHVYGNGYSKAGIPQHHPPMAQNLQYPDDSDDEKKAGPLGGSSYEEEEEEEEGGGGGERKVGGPHPKYDEDAKRPYFTVDEAEARQDGYGDRTLGYQYDPEQLDLAENMVSQNDGSFISKKEWYV	did not associate with BACE1		
Δ28-300: nectin-1 ectodomain truncation mutant, V5 and flag tagged (protein, left off: small tags and cut ends, nectin-1 ectodomain truncation mutant, V5 and flag tagged) GPINYSLAGTYICEATNPIGTRSGQVEVNITEFPYTPSPPEHGRRAGPVPTAIIGGVAGSILLVLIVVGGIVVALRRRRHTFKGDYSTKKHVYGNGYSKAGIPQHHPPMAQNLQYPDDSDDEKKAGPLGGSSYEEEEEEEEGGGGGERKVGGPHPKYDEDAKRPYFTVDEAEARQDGYGDRTLGYQYDPEQLDLAENMVSQNDGSFISKKEWYV	interacted with BACE1 very strongly		
